The series is described as follows: protein stability index of a GFP-peptide fusion (GPS, HEK-293T) (PSI 1-6); higher = more stable.
The mark [1] stands for this setting: treatment: DMSO, c terminus: a fixed tail appended.
Setting [2] is: treatment: MLN4924 1 uM, 8 h, c terminus: a fixed tail appended.
Setting [3] is: treatment: DMSO, c terminus: native.
Setting [4] is: treatment: MLN4924 1 uM, 8 h, c terminus: native.

± gives the standard deviation.
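Note: 24-mer peptide tiles fused after GFP, lentivirally expressed, FACS-sorted into six equal bins by GFP/DsRed ratio, decoded by Illumina sequencing, PSI is the read-weighted mean bin number.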

LLDNPLCADVLFILQDQEHIFAHR [RHOBTB1] showed a protein stability index under setting [1] of 2.36 ± 0.35 and a protein stability index under setting [2] of 2.17 ± 0.11.
For LLEEEEKQWGPLEREPVRGQCLDS [RTN2], the protein stability index is, setting by setting: under setting [1], 5.1 ± 0.3; under setting [2], 5.26 ± 0.077.
On to LLKHPNIVRLHDSISEEGFHYLVF [CAMK2D], for which the protein stability index under setting [1] stood at 2.42 ± 0.32 and the protein stability index under setting [2] was determined as 2.2 ± 0.18.
Turning to LLLENGAGINTHSNEFKESALTLA [ANKRD17], the protein stability index is 2.32 ± 0.54 under setting [1] and 2.76 ± 0.6 under setting [2].
Regarding LLNTLSLAFVGGLPLAYQQTSAFA [TMEM175], the protein stability index is 3.2 ± 0.3 under setting [1] and 2.74 ± 0.42 under setting [2].
Consider LLPESGIVADIELENVLDPDSFYE [TFE3], for which the protein stability index reads like this: under setting [1], 4.47 ± 0.3; under setting [2], 4.76 ± 0.49.
In the case of LLQLPDTKVGSFMIRESETKKGFY [SLA], the protein stability index reads like this: under setting [1], 2.75 ± 0.25; under setting [2], 2.95 ± 0.047.
On the same counts, the results for LLRDPADASEAHESSSRGEAGAPG [CHGB] are 5.45 ± 0.28 and 5.34 ± 0.24.
On to LLRHRMNWLGRPSKVLSLQDLCCR [RAB40A], for which the protein stability index is, setting by setting: under setting [1], 2.62 ± 0.27; under setting [2], 2.71 ± 0.35.
In the case of LLTLLPQLQEAWQQRTPSPVPGG [RSAD1], the protein stability index is 3.3 ± 0.21 under setting [3] and 2.83 ± 0.54 under setting [4].
Take LLWATNEFSLVNVNLQRFGMNGQM [ETS2]: the protein stability index is, setting by setting: under setting [1], 2.9 ± 0.64; under setting [2], 2.94 ± 0.49.
Regarding LLYNRSNNKYSYTSNSDDNMLKNI [KCTD10], the protein stability index runs as follows: under setting [1], 2.52 ± 0.28; under setting [2], 2.74 ± 0.6.
With LMQVHASRSNNMGIVGGFTQMIRE [SLC25A25], the protein stability index came out at 2.75 ± 0.21 under setting [1] and 2.94 ± 0.24 under setting [2].
For the sequence LMRAQRNYMVQTEDQYIFIHDALL [PTPRD], the protein stability index under setting [1] was 2.48 ± 0.46 and the protein stability index under setting [2] amounted to 2.41 ± 0.53.
As to LNEDTIQDVVQAADLLLLTDLKTL [GAN], the protein stability index was determined as 3.03 ± 0.31 under setting [1] and 3.16 ± 0.44 under setting [2].
On the same counts, the results for LNFQIEHHLFPTMPRHNYHKVAPL [FADS1] are 1.98 ± 0.33 and 2.02 ± 0.51.
Consider LNGTKVAEGHKASFCLEDTECEGD [LOXL2], for which the protein stability index runs as follows: under setting [1], 5.41 ± 0.33; under setting [2], 5.59 ± 0.12.
LNMEEPPVEEPEPKPDRLLVLKVL [SLC19A2]: the protein stability index reads like this: under setting [1], 3.5 ± 0.56; under setting [2], 3.8 ± 0.25.
LNSEQAEQLERINDALSCEYECRR [FAM98B]: the protein stability index was 4.54 ± 0.29 under setting [1] and 4.66 ± 0.11 under setting [2].
In the case of LPDNYEIIDSSLEDITYVLKPTFT [USP39], the protein stability index was found to be 2.87 ± 0.39 under setting [1] and 2.8 ± 0.47 under setting [2].
With LPEAPPKKFLTLGSKFRYSGRTQA [EPB41L3], the protein stability index is, setting by setting: under setting [1], 3 ± 0.28; under setting [2], 3.18 ± 0.39.
Consider LPPEALTAPSGGQWGAEPEGSCYQ [RNF208], for which the protein stability index came out at 4.73 ± 0.42 under setting [1] and 4.73 ± 0.078 under setting [2].
Turning to LPRRPRKGSSELGFPRVAPEDEVI [RNF208], the protein stability index by setting is: under setting [1], 4.37 ± 0.23; under setting [2], 4.33 ± 0.15.
Turning to LPTITSELSGAPRCHTVPCAGSTA [PXN], the protein stability index was found to be 3.86 ± 0.34 under setting [1] and 3.83 ± 0.27 under setting [2].
For LPVGGRLPGPTRPVLGRRAVGGRL [HAGHL], in that order: 3.983 ± 0.03 and 4.24 ± 0.64.
For LQHEERETRQKKLEVAMEEEGLAD [STK38L], in that order: 5.59 ± 0.28 and 5.56 ± 0.11.
As to LQHGDQLSICFTCFKAAFLDFKDL [TEX19], the protein stability index under setting [1] came out at 2.89 ± 0.52 and the protein stability index under setting [2] is 2.51 ± 0.36.
On to LQKDEYRPDKALSEGDLKNAIRVH [PSD2], for which the protein stability index reads like this: under setting [1], 4.56 ± 0.055; under setting [2], 4.58 ± 0.16.
In the case of LQMEFKAVQQVQRLPFLSSSNLSL [POMP], the protein stability index amounted to 2.15 ± 0.22 under setting [1] and 2.16 ± 0.17 under setting [2].
Consider LRAFVNSQIQGHKEMSKVWNDLRP [SNX8], for which the protein stability index is 2.39 ± 0.21 under setting [1] and 2.62 ± 0.27 under setting [2].
On to LRGPRERAPSERSGPAASEHSHRS [DVL3], for which the protein stability index runs as follows: under setting [1], 5.14 ± 0.3; under setting [2], 5.34 ± 0.057.
For the sequence LRKIIDFIYTAKLSLNMDNLQDTL [KLHL13], the protein stability index runs as follows: under setting [1], 2.79 ± 0.63; under setting [2], 2.44 ± 0.78.
On to LRQQCAQVLRNNPDALSDVGEVPY [ELOA2], for which the protein stability index is, setting by setting: under setting [1], 3.88 ± 0.21; under setting [2], 3.93 ± 0.16.
For LRQRRPLRPQVVTDDDGQAPEAKD [APMAP], the protein stability index reads like this: under setting [1], 5.43 ± 0.16; under setting [2], 5.52 ± 0.12.
Regarding LRRIRAESGTKGLFAGFLPRIIKA [SLC25A39], the protein stability index reads like this: under setting [1], 2.05 ± 0.27; under setting [2], 2.15 ± 0.33.
For LRTTVHHAFPVVTENRGNEKEFMK [CLCN6], the protein stability index by setting is: under setting [1], 4.05 ± 0.27; under setting [2], 4.38 ± 0.098.
LRVWDMFFCEGVKIIFRVGLVLLK [TBC1D10A] gave a protein stability index under setting [1] of 2.6 ± 0.38 and a protein stability index under setting [2] of 2.37 ± 0.29.
On to LSARDHQKLEREARICRLLKHPNI [CAMK2A], for which the protein stability index under setting [1] is 2.98 ± 0.069 and the protein stability index under setting [2] was 3.01 ± 0.26.
The sequence LSFAAKQRELHSHVTNAMVLVNVL [DHCR7] gave a protein stability index under setting [1] of 2.49 ± 0.77 and a protein stability index under setting [2] of 2.44 ± 0.79.
For LSLCCWGWVSGQLRYSVVEESEPG [PCDHGC5], the protein stability index reads like this: under setting [1], 2.65 ± 0.48; under setting [2], 2.25 ± 0.5.
For LSLEAVICFKEMLANSWNCLPKHL [KLHDC2], the protein stability index is, setting by setting: under setting [1], 2.49 ± 0.35; under setting [2], 2.37 ± 0.53.
On the same counts, the results for LSSAEENEPSQAETAVEGDPSGVS [C18orf25] are 5.47 ± 0.24 and 5.39 ± 0.47.
With LTHLSLSRRASESSLSSESSESSD [CDC25B], the protein stability index came to 5.38 ± 0.24 under setting [1] and 5.4 ± 0.12 under setting [2].
For LTIEERYLPQCSYFKCVQKDIQPY [CCND2], in that order: 2.37 ± 0.31 and 2.49 ± 0.24.
For the sequence LTVQFVQGIFVEKYDPTIEDSYRK [RAP1B], the protein stability index came out at 2.17 ± 0.47 under setting [1] and 2.1 ± 0.57 under setting [2].
For the sequence LVLPLVPELLSTHPFFDTAEPDMD [INTS4], the protein stability index by setting is: under setting [1], 2.56 ± 0.11; under setting [2], 2.76 ± 0.68.
As to LVLYPTSLAIFSEELDGLCFKGEL [PLEKHN1], the protein stability index was 2.88 ± 0.58 under setting [1] and 2.96 ± 0.23 under setting [2].
With LVSWLPRLNAYRGYCSNQLAAKAL [NET1], the protein stability index is 2.5 ± 1 under setting [1] and 2.1 ± 0.2 under setting [2].
As for LVVHTGCKDFLCQFCAQRFGRKDH [PLAGL1], the protein stability index was 2.6 ± 0.34 under setting [1] and 2.98 ± 0.091 under setting [2].
For the sequence LVYVAAFSIGLGPMPWLVLSEIFP [SLC2A12], the protein stability index was 3.22 ± 0.44 under setting [1] and 3.19 ± 0.7 under setting [2].
With MAAKSQPNIPKAKSLDGVTNDRTA [DHCR7], the protein stability index was determined as 5 ± 0.15 under setting [1] and 5.04 ± 0.16 under setting [2].
Regarding MASTTTCTRFTDEYQLFEELGKGA [CAMK2D], the protein stability index runs as follows: under setting [1], 3.74 ± 0.38; under setting [2], 3.64 ± 0.29.
For MAYAKLMLTVMTKYQANITETQRL [FANCE], in that order: 3.16 ± 0.75 and 2.95 ± 0.52.
For MCLKKNHEEEVSVLRCQLGDRLNV [KRT36], in that order: 3.24 ± 0.29 and 3.02 ± 0.35.
With MCQTKHSPWADGTPCGPAQACMGG [ADAMTS4], the protein stability index runs as follows: under setting [1], 3.26 ± 0.43; under setting [2], 3.44 ± 0.4.
On to MDGQTDFWRDWEDYAHGFGNISGE [TNXB], for which the protein stability index came out at 3.94 ± 0.34 under setting [1] and 4.34 ± 0.58 under setting [2].
On to METLCLRASFWLALVGCVISDNPE [EDNRA], for which the protein stability index was 3.25 ± 0.19 under setting [1] and 2.7 ± 0.75 under setting [2].
Turning to MFLAMLAVVSCASIGSGEPPTGN [CDK11A], the protein stability index came to 2.67 ± 0.36 under setting [3] and 2.46 ± 0.39 under setting [4].
On to MGLVETKLAIIPGGGGTQRLPRAI [AUH], for which the protein stability index reads like this: under setting [1], 2.99 ± 0.82; under setting [2], 3.34 ± 0.35.
MGQKLSGSLKSVEVREPALRPAKR [SPSB4]: the protein stability index turned out to be 4.37 ± 0.31 under setting [1] and 4.62 ± 0.11 under setting [2].
As for MIVDVTPYMNPSPFTVSPNTHVSQ [CLCN6], the protein stability index is, setting by setting: under setting [1], 2.47 ± 0.17; under setting [2], 2.8 ± 0.31.
For MKLSLGGSEMGLSSHLQSSKAGPT [KLHL13], in that order: 3.79 ± 0.26 and 3.57 ± 0.29.
Consider MLEMVPEKRASAGECLRHPWLNS [SRPK2], for which the protein stability index is, setting by setting: under setting [3], 3.79 ± 0.34; under setting [4], 3.85 ± 0.25.
Turning to MLKAEETCAPSVSYFKCVQKEVLP [CCND1], the protein stability index by setting is: under setting [1], 3.52 ± 0.12; under setting [2], 3.55 ± 0.24.
Consider MLLELTRRGQEPLSALLQFGVTYL [BCL2L13], for which the protein stability index was 2.63 ± 0.59 under setting [1] and 2.4 ± 0.41 under setting [2].
Consider MLQIPQEKSQAYPRRRRPGCYAYR [MYORG], for which the protein stability index runs as follows: under setting [1], 3.22 ± 0.43; under setting [2], 3.23 ± 0.23.
In turn, MMNQSMMGMNMNIGMSAAGMGLTG [CLINT1] showed a protein stability index under setting [1] of 2.46 ± 0.39 and a protein stability index under setting [2] of 2.53 ± 0.3.
MNMLWSRMLKDNKKNWRRVYKSLL [CLINT1]: the protein stability index by setting is: under setting [1], 2.62 ± 0.74; under setting [2], 2.58 ± 0.61.
Turning to MNSLLIGELSPEQPSFEPTKNKEL [FADS1], the protein stability index is 4.26 ± 0.091 under setting [1] and 4.8 ± 0.21 under setting [2].
Consider MNVMLKSSPVDLVTATDQKVEKML [IMPA1], for which the protein stability index runs as follows: under setting [1], 3.832 ± 0.018; under setting [2], 3.96 ± 0.49.
For MQPSKPQQPSLNTMIQQQNMQQPM [CLINT1], in that order: 4.1 ± 0.13 and 4.34 ± 0.46.
Regarding MRFASGRPAFVRVRRGHSHLAPSE, the protein stability index by setting is: under setting [1], 3.08 ± 0.22; under setting [2], 3.29 ± 0.4.

The values are drawn from the supplement of paper PMC10567573.
